Paper PMC6282390
pKd: −log10 of the molar value.

Columns and labels:
[1] = test system: Dicer D1320A/D1709A (Homo sapiens); test: EMSA; conditions: 5'-phosphate, 3'-OH; 50 mM Tris pH 7.6, 50 mM NaCl, 10% glycerol, 0.05% NP-40, 2 mM DTT, (0.5 mM EDTA for WT), 2 pM RNA (10 pM in Fig. 4 legend), 30 min at 4 °C
Dicer WT (Homo sapiens) = test: EMSA; conditions: 5'-phosphate, 3'-OH; 50 mM Tris pH 7.6, 50 mM NaCl, 10% glycerol, 0.05% NP-40, 2 mM DTT, (0.5 mM EDTA for WT), 2 pM RNA (10 pM in Fig. 4 legend), 30 min at 4 °C

pre-let-7a-1
pKd [1]: 8.05 | pKd (Dicer WT (Homo sapiens)): 8.30
